Source: the supplement of paper PMC9170038

Tested on: MS2 coat protein
Experiment: apparent KD of MS2 coat protein; designed switch direction (-1 OFF switch, 1 ON switch): -1; higher = weaker reporter binding
In short: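 The buffer was Tris-HCl pH 7.5 with KCl, MgCl2, BSA, DTT, tRNA and Tween-20. In it, SNAP-549-labelled MS2 coat protein was titrated in doubling steps from 0.7 or 1.5 nM to 3 µM over chip-bound RNA switches transcribed by stalled E. coli RNA polymerase on Illumina chips. Apparent KD is the per-design median over clusters of curve fits to normalised fluorescence.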

[1] = Eterna round: R95, input ligand: FMN 200 uM
[2] = Eterna round: R95, input ligand: microRNA oligo, concentration not stated
[3] = Eterna round: R95, input ligand: none
[4] = input ligand: microRNA oligo, concentration not stated

Sequence | apparent KD of MS2 coat protein [2] | apparent KD of MS2 coat protein (input ligand: FMN 200 uM) | apparent KD of MS2 coat protein (input ligand: none) | other results
CCUUUGUCAGGAUAUCAGAAAACGCCCGUAGGGAGCGCAAAUGAGAAGGGACAUGAGGAUCACCCAUGUAAAGA [Edvereri] (puzzle: Exclusion 4) | 0.0501 µM |  |  | apparent KD of MS2 coat protein [1]: 0.204 µM; apparent KD of MS2 coat protein [3]: 0.053 µM
AAAGUGUGAGGAUAUCCUGGGCUGGGCCGGGAGGUUCGGUUGGAGAAGGCACAUGAGGAUCACCCAUGUAACGG [Excls4-IX] (puzzle: Exclusion 4) | 0.0571 µM |  |  | 
CAGGACAGAGGAUAUACAUAGAUACAGAUUCAUGUAGAACUACAUGAGGAUCACCCAUGUAGAAGGCUGACCUG [Fiskers Ex 2 - 4] (puzzle: Exclusion 2) | 0.0278 µM |  |  | 
ACCUAUGAGGAGGAUAUACAGUGCGAAAGGACAGUAGAAGGCUUCACAUGAGGAUCACCCAUGUCGAUAAGCGA [EX6 #83] (Eterna round: R97, puzzle: Exclusion 6) |  | 0.0302 µM | 0.0215 µM | 
AUAAUGUGAGGAUAUCAGUCGACUAGCCUCGGCUAGUCGACUGAGAAGGUACAUGAGGAUCACCCAUGUGGUUC [E4/11-B2] (Eterna round: R97, puzzle: Exclusion 4) |  | 0.882 µM | 0.429 µM | 
CGAGACGGAGGAUAUACAUGAGGAUCACCCAUGUUAAACCACGGGUAGCCUUCGGUCGGUAGAAGGCCGCAUCG [Eternabot (Original) Solution 47] (Eterna round: R97, puzzle: Exclusion 3) |  | 0.0867 µM | 0.0212 µM | 
UUUAGUUCAGGAUAUGUAGAUUUAAACAUGAGGAUCACCCAUGUAAAUCCUGAUCCUGCUACAGAAGGGAACAUUU [Mat - Exclusion 5 - Eli Mod - D11] (Eterna round: R97, puzzle: Exclusion 5) |  | 0.0166 µM | 0.0127 µM | 
AAAUGAUGAGGAUAUACAUGAGGAUCACCCAUGUGUAAAAAUAAAUACACAAAAGAAAGUAGAAGGCAUCAAAA [Ex 3 May 12] (Eterna round: R96, puzzle: Exclusion 3) |  |  |  | apparent KD of MS2 coat protein [4]: 0.0251 µM
UUUUAACAUGAGGAUCACCCAUGUGAGGAUAUGAUUUUUUUUUUUUUUUUUUUUUUUUUCAGAAGGCACAUUUU [My solution] (puzzle: Exclusion 1) | 0.0643 µM |  |  | apparent KD of MS2 coat protein [1]: 0.018 µM; apparent KD of MS2 coat protein [3]: 0.0424 µM
UAGUGAGCGUGAGGAAUAUACAUGAGGAUCACCCAUGUUUGCUACUAUCUUGCUCGUCUUAUAACAACAAUUAACUG [mod-hagla-honey#50] (Eterna round: R97, puzzle: Sensor, turn-off variant 1) |  | 0.0148 µM | 0.0169 µM | 
AAAAUGGCAGGAUAUACAUGAGGAUCACCCAUGUUCGUCUUUACAUGUAAAAUGCUCUGUAGAAGGGCCUCGAA [Quised] (Eterna round: R97, puzzle: Exclusion 3) |  | 0.0471 µM | 0.0219 µM | 
UUAAUACAUGAGGAUCACCCAUGUCAGGAUAUCCGUAUUUCUUAUAUAUAUUUCUAUCGGAGAAGGGACACAUU [lam1] (Eterna round: R97, puzzle: Exclusion 1) |  | 0.0509 µM | 0.0454 µM | 
UCGUGGUAAAUCAGAAGUUUCCUGAGCGGAGGAACUUUGACAUGAGGAUCACCCAUGUUGCUUUUUGCUCAUCUUAA [JR_SV3TOV2_Sub043] (puzzle: Sensor v3, turn-off variant 2) | 0.0418 µM |  |  | apparent KD of MS2 coat protein [1]: 0.0153 µM; apparent KD of MS2 coat protein [3]: 0.0129 µM
CUGAGCUGACGGAGAUCCAACAUGAGGAUCACCCAUGUCUCAAAAGCUUUUUGCUCGUCUUAUCCUCCUCAGUUCAC [Mat - Sensor, turn-off var - Eli Mod - D55] (Eterna round: R97, puzzle: Sensor, turn-off variant 1) |  | 0.0265 µM | 0.0226 µM | 
GUGACCAUAGGAUAUACAUGAGGAUCACCCAUGUGCAAGUCGGAAGACCUGCGGUCAUGUAGAAGGAUGUAAUU [EX3 A.19] (Eterna round: R97, puzzle: Exclusion 3) |  | 0.0183 µM | 0.0209 µM | 
AGCCUACAUGAGGAUCACCCAUGUCAGGAUAUCUCGCGACGUGUCGGGUUCACGUUGCAGAGAAGGGACUCGGG [Estibera] (puzzle: Exclusion 1) | 0.0464 µM |  |  | 

Sequence | apparent KD of MS2 coat protein [2] | apparent KD of MS2 coat protein (input ligand: FMN 200 uM) | apparent KD of MS2 coat protein (input ligand: none) | other results
GGUACUAACACGAUAGUGUUAGUACUAUAAGCUUGUGUUACAUGAGGAUCACCCAUGUCCUCAUAGGCUCGUCUUAG [Mat - Sensor v3 - Turn-off var 2 - D85] (puzzle: Sensor v3, turn-off variant 2) | 0.0231 µM |  |  | apparent KD of MS2 coat protein [1]: 0.0871 µM; apparent KD of MS2 coat protein [3]: 0.106 µM
GAUGGACAUGAGGAUCACCCAUGUAAGGAUAUUGAUUGUGGCUAUAAAUAGUUACGGUCAAGAAGGUACUCGUC [-21.6, -18.6 kcal, A 31%] (Eterna round: R97, puzzle: Exclusion 1) |  | 0.128 µM | 0.161 µM | 
CUCUCGCGAGGAUAUGAUUUAAGUAACAUGAGGAUCACCCAUGUUUUUCCGUUGUUAUGUUCAGAAGGCGCGUGAU [JR_E5_Sub022] (puzzle: Exclusion 5) | 0.0388 µM |  |  | 
GCGUGACAUGAGGAUCACCCAUGUGAGGAUAUCUGGAUAAUCUUUAUUUUAGAUAUCCAGAGAAGGCACAUGCU [Ex1-3: 3Z] (puzzle: Exclusion 1) | 0.17 µM |  |  | 
CGCACACAUGAGGAUCACCCAUGUGAGGAUAUCAUGCUUCGUAGUAAACUACGAAGUGUGAGAAGGCACAUGCC [Omei Ex1 D7] (Eterna round: R97, puzzle: Exclusion 1) |  | 0.0242 µM | 0.0184 µM | 
UGAUCUAGCGGAGGAUAUACAUGAGGAUCACCCAUGUAGAUAACAUGACCGUAGUCGUGUAACGUGUAGAAGGCCGCUAGAUCU [JL ENG2 3.68] (Eterna round: R96, puzzle: Exclusion NG 2) |  | 0.104 µM | 0.023 µM | apparent KD of MS2 coat protein [4]: 0.017 µM
CUUGUGUUAGGAUAUGUUAAGCCACCAACCAGUGGAUCAGGACAGAAGGAACAUGAGGAUCACCCAUGUAAAAG [Inedar] (Eterna round: R97, puzzle: Exclusion 4) |  | 0.0253 µM | 0.0674 µM | 
AGGAGCAGAGGGAGAUCCAACAUGAGGAUCACCCAUGUCUCAUAAGCUUUUUGCUCAUCUUAUUGUACCUUGGUGCU [Mat - Sensor v3 - turn-off var 1 - JL Mod - D26] (puzzle: Sensor v3, turn-off variant 1) | 0.0143 µM |  |  | apparent KD of MS2 coat protein [1]: 0.0357 µM; apparent KD of MS2 coat protein [3]: 0.0379 µM
ACAAGCUUUUUGUUCGUCUUAUAAUAAUAAAUAAAGAUAACAUGAGGAUCACCCAUGUAAAGAAGACGGCCUCAUGU [Sesor Array 20 - Jieux - Sensor v3, turn-off variant 2] (puzzle: Sensor v3, turn-off variant 2) | 0.233 µM |  |  | apparent KD of MS2 coat protein [1]: 0.785 µM; apparent KD of MS2 coat protein [3]: 1.12 µM
CUCAUGCCUGAGGAUAUGCUGUACAAAAGUACUGCAGAAGGUGGAACAUGAGGAUCACCCAUGUGGCGAAAGCC [Omei Ex G4] (Eterna round: R97, puzzle: Exclusion 6) |  | 0.253 µM | 0.0661 µM | 
UUGUUAUGUGUAGGAUAUGCAUAUUAUUAUUAUGCAGAAGGACAUGAGGAUCACCCAUGUAUAUUAUUAUUAUAUAUUAUAUAU [Title] (Eterna round: R96, puzzle: Exclusion NG 1) |  |  |  | apparent KD of MS2 coat protein [4]: 0.0219 µM
GACUGCCGAGGAUAUACAUGAGGAUCACCCAUGUGCUUCAGUAUCGAAAGAUGCAUGGGUAGAAGGCGGUAGUC [LRO-Excl3-10] (Eterna round: R96, puzzle: Exclusion 3) |  | 0.912 µM | 1.41 µM | apparent KD of MS2 coat protein [4]: 0.627 µM
UACUUGUUAGGAUAUCUUACAUUUGCAUCAUAGUAACCUUUGGAGAAGGGACAUGAGGAUCACCCAUGUUUGGU [tap-tap-tappy6] (Eterna round: R97, puzzle: Exclusion 4) |  | 0.0492 µM | 0.0726 µM | 
AAAAAAAAAGUGAGGAUAUGCUCUACCUCGGUAGAGCAGAAGGCACAUGAGGAUCACCCAUGUGACUCCUCAUU [Omei Ex4B B25] (Eterna round: R97, puzzle: Brourd's mod of Exclusion 4) |  | 0.0296 µM | 0.0191 µM | 
CAGACACAUGAGGAUCACCCAUGUAAGGAUAUGAACUGUGGUAACGGAGCCAGCGGGUUCAGAAGGUGCGUGAC [Eternabot (L1) Solution 19] (Eterna round: R97, puzzle: Exclusion 1) |  | 0.0779 µM | 0.0914 µM | 
UUAAUUAGCAGACUAAUACCUCACAUGAGGAUCACCCAUGUGCAGGAUAUCAGCUCGUUUAGAGCUGAGAAGGGCACUGUCUGC [ExNG3/12-A2] (Eterna round: R96, puzzle: Exclusion NG 3) |  | 0.0179 µM | 0.0113 µM | apparent KD of MS2 coat protein [4]: 0.00872 µM
